Reference: the supplement of paper PMC6757056
± gives the standard deviation of the averaged measurements.

B1: library; a variant is named by its letters at N, in order (parent)
chain: GCUGUCACCGGUGUAUUACCCUAGUGGUCGACCGGUCUGAUGAGUCUNNNNNNAGACGAAACAGC

Tests used:
hypoxanthine [1] = variants of: B1; test: normalized RNA/DNA level with ligand (relative to sTRSVctl = 100) (log10 (% of sTRSVctl)); ligand: hypoxanthine (xanthine aptamer); higher = less ribozyme self-cleavage, higher mRNA level; conditions: ligand concentration (+) RNA-Seq: 5 mM, HEK293T, reporter: mCherry (pCS4076), ligand present: yes
Summary of the method: (§1)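 Library plasmids encoding reporter-linked ribozyme switches (mCherry, or eGFP for some folinic acid experiments) were transfected into HEK293T at 4 µg per 6-well well. Ligand, when used, was added 1 h before transfection. Total RNA was extracted with EDTA 72 h later, then reverse-transcribed, amplified, barcoded and sequenced. RNA level was RNA reads over DNA reads, divided by a spiked-in non-cleaving control (or the top 25 sequences), ×100, log10; only sequences with ≥100 DNA reads were kept.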

hypoxanthine [2] = variants of: B1; test: normalized RNA/DNA level without ligand (relative to sTRSVctl = 100) (log10 (% of sTRSVctl)); ligand: hypoxanthine (xanthine aptamer); higher = less ribozyme self-cleavage, higher mRNA level; conditions: HEK293T, reporter: mCherry (pCS4076), ligand present: no
Summary of the method: as §1

Variant	normalized RNA/DNA level with ligand (log10) (hypoxanthine [1])	normalized RNA/DNA level without ligand (log10) (hypoxanthine [2])
GCUGUCACCGGUGUAUUACCCUAGUGGUCGACCGGUCUGAUGAGUCUCACAGUAGACGAAACAGC [CACAGU]	1.926 ± 0.0077	1.844 ± 0.0086
GCUGUCACCGGUGUAUUACCCUAGUGGUCGACCGGUCUGAUGAGUCUUACAGUAGACGAAACAGC [UACAGU]	1.8101 ± 0.00016	1.52 ± 0.066
GCUGUCACCGGUGUAUUACCCUAGUGGUCGACCGGUCUGAUGAGUCUUACAUAAGACGAAACAGC [UACAUA]	1.93 ± 0.038	1.86 ± 0.024
GCUGUCACCGGUGUAUUACCCUAGUGGUCGACCGGUCUGAUGAGUCUGACAUCAGACGAAACAGC [GACAUC]	1.97 ± 0.081	1.93 ± 0.077
GCUGUCACCGGUGUAUUACCCUAGUGGUCGACCGGUCUGAUGAGUCUUACAUCAGACGAAACAGC [UACAUC]	1.979 ± 0.018	2 ± 0.03
GCUGUCACCGGUGUAUUACCCUAGUGGUCGACCGGUCUGAUGAGUCUAACAUCAGACGAAACAGC [AACAUC]	1.95 ± 0.022	2.02 ± 0.022
GCUGUCACCGGUGUAUUACCCUAGUGGUCGACCGGUCUGAUGAGUCUCACAUGAGACGAAACAGC [CACAUG]	1.91 ± 0.075	1.857 ± 0.017
GCUGUCACCGGUGUAUUACCCUAGUGGUCGACCGGUCUGAUGAGUCUAACAUUAGACGAAACAGC [AACAUU]	1.91 ± 0.053	1.873 ± 0.011
GCUGUCACCGGUGUAUUACCCUAGUGGUCGACCGGUCUGAUGAGUCUCACAUUAGACGAAACAGC [CACAUU]	1.909 ± 0.017	1.86 ± 0.031
GCUGUCACCGGUGUAUUACCCUAGUGGUCGACCGGUCUGAUGAGUCUGACAUUAGACGAAACAGC [GACAUU]	1.92 ± 0.057	1.856 ± 0.0056
GCUGUCACCGGUGUAUUACCCUAGUGGUCGACCGGUCUGAUGAGUCUUACAUUAGACGAAACAGC [UACAUU]	1.941 ± 0.0099	1.855 ± 0.016
GCUGUCACCGGUGUAUUACCCUAGUGGUCGACCGGUCUGAUGAGUCUAACCAAAGACGAAACAGC [AACCAA]	1.91 ± 0.037	1.78 ± 0.072
GCUGUCACCGGUGUAUUACCCUAGUGGUCGACCGGUCUGAUGAGUCUCACCAAAGACGAAACAGC [CACCAA]	1.9 ± 0.032	1.79 ± 0.082
GCUGUCACCGGUGUAUUACCCUAGUGGUCGACCGGUCUGAUGAGUCUGACCACAGACGAAACAGC [GACCAC]	1.94 ± 0.022	1.835 ± 0.017
GCUGUCACCGGUGUAUUACCCUAGUGGUCGACCGGUCUGAUGAGUCUUACCACAGACGAAACAGC [UACCAC]	1.88 ± 0.045	1.793 ± 0.016
GCUGUCACCGGUGUAUUACCCUAGUGGUCGACCGGUCUGAUGAGUCUCACCAGAGACGAAACAGC [CACCAG]	1.97 ± 0.057	1.81 ± 0.061
GCUGUCACCGGUGUAUUACCCUAGUGGUCGACCGGUCUGAUGAGUCUAACCAUAGACGAAACAGC [AACCAU]	1.873 ± 0.0073	1.8 ± 0.04
GCUGUCACCGGUGUAUUACCCUAGUGGUCGACCGGUCUGAUGAGUCUCACCAUAGACGAAACAGC [CACCAU]	1.92 ± 0.021	1.8 ± 0.024
GCUGUCACCGGUGUAUUACCCUAGUGGUCGACCGGUCUGAUGAGUCUGACCAUAGACGAAACAGC [GACCAU]	1.932 ± 0.0042	1.838 ± 0.0066
GCUGUCACCGGUGUAUUACCCUAGUGGUCGACCGGUCUGAUGAGUCUUACCAUAGACGAAACAGC [UACCAU]	1.914 ± 0.0031	1.832 ± 0.0068
GCUGUCACCGGUGUAUUACCCUAGUGGUCGACCGGUCUGAUGAGUCUCACCCAAGACGAAACAGC [CACCCA]	1.958 ± 0.016	1.83 ± 0.019

Variant	normalized RNA/DNA level with ligand (log10) (hypoxanthine [1])	normalized RNA/DNA level without ligand (log10) (hypoxanthine [2])
GCUGUCACCGGUGUAUUACCCUAGUGGUCGACCGGUCUGAUGAGUCUGACCCAAGACGAAACAGC [GACCCA]	1.928 ± 0.0094	1.833 ± 0.0075
GCUGUCACCGGUGUAUUACCCUAGUGGUCGACCGGUCUGAUGAGUCUUACCCAAGACGAAACAGC [UACCCA]	1.96 ± 0.057	1.89 ± 0.024
GCUGUCACCGGUGUAUUACCCUAGUGGUCGACCGGUCUGAUGAGUCUAACCCCAGACGAAACAGC [AACCCC]	1.97 ± 0.082	1.87 ± 0.043
GCUGUCACCGGUGUAUUACCCUAGUGGUCGACCGGUCUGAUGAGUCUCACCCCAGACGAAACAGC [CACCCC]	1.96 ± 0.025	1.8889 ± 0.0018
GCUGUCACCGGUGUAUUACCCUAGUGGUCGACCGGUCUGAUGAGUCUCACCCGAGACGAAACAGC [CACCCG]	1.94 ± 0.028	1.906 ± 0.01
GCUGUCACCGGUGUAUUACCCUAGUGGUCGACCGGUCUGAUGAGUCUUACCCGAGACGAAACAGC [UACCCG]	1.93 ± 0.073	1.692 ± 0.0093
GCUGUCACCGGUGUAUUACCCUAGUGGUCGACCGGUCUGAUGAGUCUAACCCUAGACGAAACAGC [AACCCU]	1.932 ± 0.0028	1.8887 ± 0.0015
GCUGUCACCGGUGUAUUACCCUAGUGGUCGACCGGUCUGAUGAGUCUCACCCUAGACGAAACAGC [CACCCU]	1.96 ± 0.034	1.91 ± 0.096
GCUGUCACCGGUGUAUUACCCUAGUGGUCGACCGGUCUGAUGAGUCUUACCCUAGACGAAACAGC [UACCCU]	1.9818 ± 0.00074	1.916 ± 0.015
GCUGUCACCGGUGUAUUACCCUAGUGGUCGACCGGUCUGAUGAGUCUGACCGAAGACGAAACAGC [GACCGA]	1.97 ± 0.032	1.8545 ± 0.00036
GCUGUCACCGGUGUAUUACCCUAGUGGUCGACCGGUCUGAUGAGUCUCACCGCAGACGAAACAGC [CACCGC]	2.015 ± 0.0091	1.91 ± 0.042
GCUGUCACCGGUGUAUUACCCUAGUGGUCGACCGGUCUGAUGAGUCUGACCGCAGACGAAACAGC [GACCGC]	1.89 ± 0.029	1.7634 ± 0.0011
GCUGUCACCGGUGUAUUACCCUAGUGGUCGACCGGUCUGAUGAGUCUUACCGCAGACGAAACAGC [UACCGC]	1.942 ± 0.0069	1.8 ± 0.039
GCUGUCACCGGUGUAUUACCCUAGUGGUCGACCGGUCUGAUGAGUCUCACCGGAGACGAAACAGC [CACCGG]	1.875 ± 0.0026	1.58 ± 0.13
GCUGUCACCGGUGUAUUACCCUAGUGGUCGACCGGUCUGAUGAGUCUCACCGUAGACGAAACAGC [CACCGU]	1.93 ± 0.064	1.892 ± 0.011
GCUGUCACCGGUGUAUUACCCUAGUGGUCGACCGGUCUGAUGAGUCUAACCUAAGACGAAACAGC [AACCUA]	1.93 ± 0.028	1.84 ± 0.047
GCUGUCACCGGUGUAUUACCCUAGUGGUCGACCGGUCUGAUGAGUCUCACCUAAGACGAAACAGC [CACCUA]	1.921 ± 0.0097	1.76 ± 0.11
GCUGUCACCGGUGUAUUACCCUAGUGGUCGACCGGUCUGAUGAGUCUGACCUAAGACGAAACAGC [GACCUA]	1.935 ± 0.01	1.85 ± 0.033
GCUGUCACCGGUGUAUUACCCUAGUGGUCGACCGGUCUGAUGAGUCUAACCUCAGACGAAACAGC [AACCUC]	1.937 ± 0.018	1.96 ± 0.027
GCUGUCACCGGUGUAUUACCCUAGUGGUCGACCGGUCUGAUGAGUCUCACCUCAGACGAAACAGC [CACCUC]	1.99 ± 0.081	1.969 ± 0.011
GCUGUCACCGGUGUAUUACCCUAGUGGUCGACCGGUCUGAUGAGUCUGACCUCAGACGAAACAGC [GACCUC]	1.93 ± 0.031	1.909 ± 0.0094
